From the supplement of paper PMC10567573

B1: ZNF449 (parent)
chain: CTHCSKSFRQRAGLIMHQVTHFRG
B2: CCDC6 (parent)
chain: ASVTIQARAEQEEEFISNTLFKKI

Variants of: B1
Test: protein stability index of a GFP-peptide fusion (GPS, HEK-293T) (PSI 1-6); higher = more stable
Settings: c terminus: a fixed tail appended
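Also: lentivirally expressed fusions sorted by FACS into six bins by GFP to DsRed ratio, PSI derived from sequencing read proportions per bin multiplied by bin number.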

Variant	protein stability index
CTHCSKSFRQNAGLIMHQVTHFRG	1.8
CEHCSKSFRQRAGLIMHQVTHFRG	2.4
CTHCSKSFRQRAGLIMHFVTHFRG	1.67
CTHCSKSFRQRAGLIMHPVTHFRG	3.9
CTHCSKSFRQRAGLIMHQVIHFRG	2.57
CTHCSKSFRQRAGSIMHQVTHFRG	1.9
CTHCSKSFRSRAGLIMHQVTHFRG	1.99
CTHCSKSFRFRAGLIMHQVTHFRG	1.9
CTHCSKSFRYRAGLIMHQVTHFRG	1.95
CTHCSKSFRQRWGLIMHQVTHFRG	2.53
CTHCSKSFRQRARLIMHQVTHFRG	2.65
CTHCSKSFRQRAYLIMHQVTHFRG	1.31
CTHCSKVFRQRAGLIMHQVTHFRG	2.22
CTHCSKSFWQRAGLIMHQVTHFRG	2.07
CTHCSKSFCQRAGLIMHQVTHFRG	2.33
CTHCFKSFRQRAGLIMHQVTHFRG	1.7
CTHHSKSFRQRAGLIMHQVTHFRG	2.39
CTHCSKSFRQRAGLIMHQVTHFWG	3.55
CTHCSKSFRQRAGLIMHQVTHFGG	2.37
CTHCSKSFRQRAGLIMHQVTHFYG	2.36
CTHCSKSFRQRAGLIMHQVTHFKG	2.7
CTHCSKSFRQRAGLIHHQVTHFRG	2.43
CTHCSKSFRQRAGLICHQVTHFRG	2.64
QTHCSKSFRQRAGLIMHQVTHFRG	3.23

Variant	protein stability index
CTHCSKSRRQRAGLIMHQVTHFRG	2.1
CTHCSKSNRQRAGLIMHQVTHFRG	2.04
CTHCSKSQRQRAGLIMHQVTHFRG	2.17
CTHCSKSFRQRAGLIMHQVTHFRH	2.17
CTHCSKSFRQRAGLIMHQVTHFRP	3.29
CTHCSKSFRQRAGLIMHQVTHFRC	2.53
CTHCSKSFRQRAGLIMHQVTHFRS	2.33
CTECSKSFRQRAGLIMHQVTHFRG	2.11
CTWCSKSFRQRAGLIMHQVTHFRG	1.38
CTKCSKSFRQRAGLIMHQVTHFRG	2.22
CTFCSKSFRQRAGLIMHQVTHFRG	2.09
CTLCSKSFRQRAGLIMHQVTHFRG	2.08
CTHCSISFRQRAGLIMHQVTHFRG	2.47
CTHCSCSFRQRAGLIMHQVTHFRG	1.52
CTHCSKSFRQRAGLIMHQVTFFRG	1.8
CTHCSKSFRQRAGLIMHQVTAFRG	2.17
CTHCSKSFRQRAGLIMHQVTWFRG	2.41
CTHCSKSFRQRAGLEMHQVTHFRG	3.59
CTHCSKSFRQRAGLYMHQVTHFRG	2.44
CTHCSKSFRQRAGLRMHQVTHFRG	2.66
CTHCSKSFRQRAGLIMDQVTHFRG	2.46
CTHCSKSFRQRAGLIMTQVTHFRG	1.47
CTHCSKSFRQRAGLIMHQVTHCRG	3.06

Variants of: B2
Test: as above
Settings: c terminus: a fixed tail appended

Variant	protein stability index
ASVYIQARAEQEEEFISNTLFKKI	2.56
ASVMIQARAEQEEEFISNTLFKKI	3.2
ASVNIQARAEQEEEFISNTLFKKI	3.98
ASVCIQARAEQEEEFISNTLFKKI	3.52
ASVGIQARAEQEEEFISNTLFKKI	3.63
ASVQIQARAEQEEEFISNTLFKKI	3.74
ASVFIQARAEQEEEFISNTLFKKI	2.44
ASVLIQARAEQEEEFISNTLFKKI	3.21
ASVKIQARAEQEEEFISNTLFKKI	3.29
ASVRIQARAEQEEEFISNTLFKKI	3.14
ASVHIQARAEQEEEFISNTLFKKI	3.61
ASVIIQARAEQEEEFISNTLFKKI	3.33
ASVPIQARAEQEEEFISNTLFKKI	4.32
ASVAIQARAEQEEEFISNTLFKKI	4.46
ASVSIQARAEQEEEFISNTLFKKI	3.86
ASVWIQARAEQEEEFISNTLFKKI	2.06
ASVVIQARAEQEEEFISNTLFKKI	2.88
ASVDIQARAEQEEEFISNTLFKKI	4.17
ASVEIQARAEQEEEFISNTLFKKI	4.41
ASVTIQPRAEQEEEFISNTLFKKI	3.67
ASVTIQKRAEQEEEFISNTLFKKI	3.69
ASVTIQDRAEQEEEFISNTLFKKI	4.31
ASVTIQNRAEQEEEFISNTLFKKI	3.69
ASVTIQCRAEQEEEFISNTLFKKI	2.45

Variant	protein stability index
ASVTIQQRAEQEEEFISNTLFKKI	3.93
ASVTIQLRAEQEEEFISNTLFKKI	2.12
ASVTIQRRAEQEEEFISNTLFKKI	3
ASVTIQMRAEQEEEFISNTLFKKI	2.67
ASVTIQVRAEQEEEFISNTLFKKI	2.8
ASVTIQSRAEQEEEFISNTLFKKI	3.9
ASVTIQGRAEQEEEFISNTLFKKI	3.66
ASVTIQTRAEQEEEFISNTLFKKI	3.85
ASVTIQIRAEQEEEFISNTLFKKI	1.93
ASVTIQYRAEQEEEFISNTLFKKI	2.8
ASVTIQHRAEQEEEFISNTLFKKI	3.6
ASVTIQERAEQEEEFISNTLFKKI	4.49
ASVTIQFRAEQEEEFISNTLFKKI	1.98
ASVTIQWRAEQEEEFISNTLFKKI	2.74
QSVTIQARAEQEEEFISNTLFKKI	4.09
VSVTIQARAEQEEEFISNTLFKKI	2.56
MSVTIQARAEQEEEFISNTLFKKI	3.1
SSVTIQARAEQEEEFISNTLFKKI	3.75
KSVTIQARAEQEEEFISNTLFKKI	3.68
PSVTIQARAEQEEEFISNTLFKKI	3.59
HSVTIQARAEQEEEFISNTLFKKI	3.85
GSVTIQARAEQEEEFISNTLFKKI	3.98
CSVTIQARAEQEEEFISNTLFKKI	3.07
WSVTIQARAEQEEEFISNTLFKKI	1.86

Variant	protein stability index
TSVTIQARAEQEEEFISNTLFKKI	3.85
ISVTIQARAEQEEEFISNTLFKKI	1.84
DSVTIQARAEQEEEFISNTLFKKI	4.27
FSVTIQARAEQEEEFISNTLFKKI	2.08
LSVTIQARAEQEEEFISNTLFKKI	2.48
RSVTIQARAEQEEEFISNTLFKKI	3.51
ESVTIQARAEQEEEFISNTLFKKI	4.39
NSVTIQARAEQEEEFISNTLFKKI	3.78
YSVTIQARAEQEEEFISNTLFKKI	2.27
APVTIQARAEQEEEFISNTLFKKI	4.25
ARVTIQARAEQEEEFISNTLFKKI	3.35
ANVTIQARAEQEEEFISNTLFKKI	3.99
AHVTIQARAEQEEEFISNTLFKKI	3.17
AKVTIQARAEQEEEFISNTLFKKI	3.38
AVVTIQARAEQEEEFISNTLFKKI	2.73
AEVTIQARAEQEEEFISNTLFKKI	4.11
AAVTIQARAEQEEEFISNTLFKKI	4.01
AWVTIQARAEQEEEFISNTLFKKI	2.37
ATVTIQARAEQEEEFISNTLFKKI	3.33
ALVTIQARAEQEEEFISNTLFKKI	2.32
ADVTIQARAEQEEEFISNTLFKKI	4.58
AQVTIQARAEQEEEFISNTLFKKI	3.71
AMVTIQARAEQEEEFISNTLFKKI	2.81
AGVTIQARAEQEEEFISNTLFKKI	3.92

Variant	protein stability index
AIVTIQARAEQEEEFISNTLFKKI	3.08
ACVTIQARAEQEEEFISNTLFKKI	2.84
AFVTIQARAEQEEEFISNTLFKKI	2.11
AYVTIQARAEQEEEFISNTLFKKI	2.19
ASVTNQARAEQEEEFISNTLFKKI	4.49
ASVTGQARAEQEEEFISNTLFKKI	4.75
ASVTPQARAEQEEEFISNTLFKKI	4.7
ASVTMQARAEQEEEFISNTLFKKI	4.29
ASVTKQARAEQEEEFISNTLFKKI	4.65
ASVTQQARAEQEEEFISNTLFKKI	5.03
ASVTFQARAEQEEEFISNTLFKKI	3.96
ASVTHQARAEQEEEFISNTLFKKI	4.32
ASVTCQARAEQEEEFISNTLFKKI	4.5
ASVTAQARAEQEEEFISNTLFKKI	4.34
ASVTEQARAEQEEEFISNTLFKKI	4.58
ASVTWQARAEQEEEFISNTLFKKI	3.66
ASVTLQARAEQEEEFISNTLFKKI	3.84
ASVTTQARAEQEEEFISNTLFKKI	4.28
ASVTDQARAEQEEEFISNTLFKKI	4.84
ASVTYQARAEQEEEFISNTLFKKI	3.73
ASVTVQARAEQEEEFISNTLFKKI	4
ASVTSQARAEQEEEFISNTLFKKI	4.24
ASVTRQARAEQEEEFISNTLFKKI	4.44
ASVTIQACAEQEEEFISNTLFKKI	3.27

Variant	protein stability index
ASVTIQADAEQEEEFISNTLFKKI	4.23
ASVTIQAEAEQEEEFISNTLFKKI	4.55
ASVTIQAAAEQEEEFISNTLFKKI	3.79
ASVTIQAGAEQEEEFISNTLFKKI	4.13
ASVTIQAHAEQEEEFISNTLFKKI	3.78
ASVTIQAIAEQEEEFISNTLFKKI	2.98
ASVTIQAFAEQEEEFISNTLFKKI	2.59
ASPTIQARAEQEEEFISNTLFKKI	4.5
ASGTIQARAEQEEEFISNTLFKKI	4.44
ASETIQARAEQEEEFISNTLFKKI	4.86
ASATIQARAEQEEEFISNTLFKKI	4.51
ASQTIQARAEQEEEFISNTLFKKI	4.42
ASSTIQARAEQEEEFISNTLFKKI	4.38
ASDTIQARAEQEEEFISNTLFKKI	4.89
ASMTIQARAEQEEEFISNTLFKKI	3.5
ASNTIQARAEQEEEFISNTLFKKI	4.6
ASCTIQARAEQEEEFISNTLFKKI	1.9
ASTTIQARAEQEEEFISNTLFKKI	4.57
ASITIQARAEQEEEFISNTLFKKI	3.09
ASLTIQARAEQEEEFISNTLFKKI	3.84
ASWTIQARAEQEEEFISNTLFKKI	3.32
ASFTIQARAEQEEEFISNTLFKKI	3.44
ASRTIQARAEQEEEFISNTLFKKI	3.9
ASKTIQARAEQEEEFISNTLFKKI	4.33

Variant	protein stability index
ASYTIQARAEQEEEFISNTLFKKI	3.42
ASHTIQARAEQEEEFISNTLFKKI	4.1
ASVTILARAEQEEEFISNTLFKKI	2.71
ASVTIMARAEQEEEFISNTLFKKI	2.54
ASVTIWARAEQEEEFISNTLFKKI	2.94
ASVTIGARAEQEEEFISNTLFKKI	3.73
ASVTICARAEQEEEFISNTLFKKI	2.81
ASVTIDARAEQEEEFISNTLFKKI	4.32
ASVTISARAEQEEEFISNTLFKKI	3.35
ASVTIFARAEQEEEFISNTLFKKI	2.89
ASVTIEARAEQEEEFISNTLFKKI	4.26
ASVTIPARAEQEEEFISNTLFKKI	4.2
ASVTIYARAEQEEEFISNTLFKKI	1.94
ASVTIKARAEQEEEFISNTLFKKI	3.98
ASVTINARAEQEEEFISNTLFKKI	3.75
ASVTIAARAEQEEEFISNTLFKKI	3.47
ASVTIVARAEQEEEFISNTLFKKI	2.71
ASVTITARAEQEEEFISNTLFKKI	3.53
ASVTIRARAEQEEEFISNTLFKKI	3.26
ASVTIIARAEQEEEFISNTLFKKI	1.97
ASVTIHARAEQEEEFISNTLFKKI	3.49
